# T1: ASK2, SKP1-like protein of Arabidopsis thaliana (Arabidopsis thaliana, UniProt Q9FHW7 1-171)
# T1 sequence (looked up): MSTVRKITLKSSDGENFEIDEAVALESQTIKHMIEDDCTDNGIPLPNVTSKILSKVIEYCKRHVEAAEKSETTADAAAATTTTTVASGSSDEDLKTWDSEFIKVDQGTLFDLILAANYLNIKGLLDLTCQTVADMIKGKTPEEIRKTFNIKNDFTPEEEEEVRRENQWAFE
# T2: REPRESSOR OF GA1-3 (RGA), full-length, Arabidopsis thaliana DELLA protein (Arabidopsis thaliana, UniProt Q9SLH3 1-587)
# T2 sequence (looked up): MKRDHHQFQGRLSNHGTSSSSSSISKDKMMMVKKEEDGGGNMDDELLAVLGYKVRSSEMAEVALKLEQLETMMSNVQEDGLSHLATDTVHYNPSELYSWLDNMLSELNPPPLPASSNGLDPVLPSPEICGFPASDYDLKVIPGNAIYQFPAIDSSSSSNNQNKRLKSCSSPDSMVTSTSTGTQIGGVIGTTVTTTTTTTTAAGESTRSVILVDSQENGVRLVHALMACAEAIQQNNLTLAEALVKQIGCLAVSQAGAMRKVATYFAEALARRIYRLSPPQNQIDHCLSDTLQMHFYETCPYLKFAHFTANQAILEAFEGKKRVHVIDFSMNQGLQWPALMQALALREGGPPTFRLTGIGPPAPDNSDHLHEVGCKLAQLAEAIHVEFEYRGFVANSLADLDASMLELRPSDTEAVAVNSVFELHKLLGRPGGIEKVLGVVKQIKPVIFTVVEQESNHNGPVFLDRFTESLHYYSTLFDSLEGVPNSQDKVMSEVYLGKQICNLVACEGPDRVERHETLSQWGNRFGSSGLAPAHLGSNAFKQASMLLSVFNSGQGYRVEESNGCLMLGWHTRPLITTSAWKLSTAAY
# Assays:
# [1] = molecular target: T1, ASK2, SKP1-like protein of Arabidopsis …; assay: SEC
# [2] = molecular target: T2, REPRESSOR OF GA1-3 (RGA), full-length, …; assay: SEC-MALS
Binder,binding result [1],binding result [2]
"SLEEPY 1 (SLY1), F-box protein (natural protein, Arabidopsis thaliana, UniProt Q9STX3 1-151, looked up) MKRSTTDSDLAGDAHNETNKKMKSTEEEEIGFSNLDENLVYEVLKHVDAKTLAMSSCVSKIWHKTAQDERLWELICTRHWTNIGCGQNQLRSVVLALGGFRRLHSLYLWPLSKPNPRARFGKDELKLTLSLLSIRYYEKMSFTKRPLPESK",binds,–
"GA … DWARF1A (GID1A), gibberellin receptor, GA3-bound (receptor, Arabidopsis thaliana, UniProt Q9MAA7 1-345, looked up) MAASDEVNLIESRTVVPLNTWVLISNFKVAYNILRRPDGTFNRHLAEYLDRKVTANANPVDGVFSFDVLIDRRINLLSRVYRPAYADQEQPPSILDLEKPVDGDIVPVILFFHGGSFAHSSANSAIYDTLCRRLVGLCKCVVVSVNYRRAPENPYPCAYDDGWIALNWVNSRSWLKSKKDSKVHIFLAGDSSGGNIAHNVALRAGESGIDVLGNILLNPMFGGNERTESEKSLDGKYFVTVRDRDWYWKAFLPEGEDREHPACNPFSPRGKSLEGVSFPKSLVVVAGLDLIRDWQLAYAEGLKKAGQEVKLMHLEKATVGFYLLPNNNHFHNVMDEISAFVNAEC",–,binds

# Source: article doi:10.1101/2025.02.08.637281 (bioRxiv, 2025)
